Experimental data reported in patent US20250076311A1 (Chugai, published 2025).

T1: human FcγRIIb extracellular domain with C-terminal His-tag (human, UniProt P31994 43-217)
T1 construct: also called human FcgRIIb
T1 sequence: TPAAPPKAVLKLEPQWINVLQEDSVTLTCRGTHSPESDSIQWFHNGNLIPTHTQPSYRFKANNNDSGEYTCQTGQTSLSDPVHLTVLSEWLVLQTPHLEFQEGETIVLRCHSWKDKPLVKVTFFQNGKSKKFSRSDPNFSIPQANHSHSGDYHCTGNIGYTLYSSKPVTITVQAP

T2: cynomolgus monkey FcγRIIIaS extracellular domain with C-terminal His-tag (cynomolgus monkey, UniProt Q8SPW2 21-206 at identity 1.00))
T2 construct: also called cyno FcgRIIIaS; cynoFcγRIIIaS
T2 chain: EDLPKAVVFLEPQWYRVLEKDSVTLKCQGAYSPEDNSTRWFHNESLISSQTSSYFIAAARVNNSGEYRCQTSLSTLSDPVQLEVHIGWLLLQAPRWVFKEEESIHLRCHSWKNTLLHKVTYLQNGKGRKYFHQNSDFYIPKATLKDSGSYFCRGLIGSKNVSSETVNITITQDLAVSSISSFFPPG

T3: human FcγRIIaH extracellular domain with C-terminal His-tag (human, UniProt P12318 34-217)
T3 construct: also called human FcgRIIaH; FcγRIIa (type H); not shown: His-tag added to C-terminus
T3 sequence: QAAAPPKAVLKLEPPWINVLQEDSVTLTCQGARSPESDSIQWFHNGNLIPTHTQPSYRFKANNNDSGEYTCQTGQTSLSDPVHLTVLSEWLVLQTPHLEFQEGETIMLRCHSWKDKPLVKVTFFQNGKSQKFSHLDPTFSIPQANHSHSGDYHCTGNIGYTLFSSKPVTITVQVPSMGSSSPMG

T4: cynomolgus monkey FcγRIIa2 extracellular domain with C-terminal His-tag (cynomolgus monkey)
T4 construct: also called cyno FcgRIIa2; cynoFcγRIIa2; not shown: His-tag added to C-terminus
T4 chain: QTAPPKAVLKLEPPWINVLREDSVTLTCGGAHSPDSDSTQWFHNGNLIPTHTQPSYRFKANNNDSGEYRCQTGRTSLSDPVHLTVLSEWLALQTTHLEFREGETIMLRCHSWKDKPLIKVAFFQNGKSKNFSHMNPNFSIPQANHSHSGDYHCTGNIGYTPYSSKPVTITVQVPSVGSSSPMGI

T5: human FcγRIIb extracellular domain with C-terminal His-tag (human, UniProt P31994 43-217)
T5 construct: also called human FcgRIIb; not shown: His-tag added to C-terminus
T5 sequence: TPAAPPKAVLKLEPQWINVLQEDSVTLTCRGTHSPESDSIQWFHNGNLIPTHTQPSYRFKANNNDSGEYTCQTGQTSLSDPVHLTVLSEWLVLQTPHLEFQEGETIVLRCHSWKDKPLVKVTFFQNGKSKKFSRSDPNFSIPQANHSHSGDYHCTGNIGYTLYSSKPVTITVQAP

T6: cynomolgus monkey FcγRIIa3 extracellular domain with C-terminal His-tag (cynomolgus monkey)
T6 construct: also called cyno FcgRIIa3; cynoFcγRIIa3; not shown: His-tag added to C-terminus
T6 chain: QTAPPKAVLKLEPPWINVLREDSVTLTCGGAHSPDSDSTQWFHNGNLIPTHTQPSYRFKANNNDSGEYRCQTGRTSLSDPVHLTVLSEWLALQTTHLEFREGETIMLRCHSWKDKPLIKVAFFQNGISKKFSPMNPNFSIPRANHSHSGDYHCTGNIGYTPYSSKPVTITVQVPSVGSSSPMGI


Legend:
[1] = biological target: T1, human FcγRIIb extracellular domain with …; assay: SPR, KD(parent SG1)/KD(variant)
[2] = biological target: T2, cynomolgus monkey FcγRIIIaS …; assay: SPR, KD(parent SG1)/KD(variant)
[3] = biological target: T7, cynomolgus monkey FcγRIIIaS extracellular domain with C-terminal His-tag (cynomolgus monkey, UniProt A3RFZ7 21-206 (rhesus entry)); assay: SPR Biacore, antibody captured, FcgR analyte
T7 construct: also called cyno FcgRIIIaS; cynoFcγRIIIaS; not shown: His-tag added to C-terminus

[4] = biological target: T3, human FcγRIIaH extracellular domain …; assay: SPR Biacore, antibody captured, FcgR analyte
[5] = biological target: T4, cynomolgus monkey FcγRIIa2 …; assay: SPR Biacore, antibody captured, FcgR analyte
[6] = biological target: T8, human FcγRIIIaV extracellular domain with C-terminal His-tag (human, UniProt P08637 17-208); assay: SPR Biacore, antibody captured, FcgR analyte
T8 construct: also called human FcgRIIIaV; not shown: His-tag added to C-terminus

[7] = biological target: T5, human FcγRIIb extracellular domain with …; assay: SPR Biacore, antibody captured, FcgR analyte
[8] = biological target: T6, cynomolgus monkey FcγRIIa3 …; assay: SPR Biacore, antibody captured, FcgR analyte

T8 sequence (P08637 17-208 F176V): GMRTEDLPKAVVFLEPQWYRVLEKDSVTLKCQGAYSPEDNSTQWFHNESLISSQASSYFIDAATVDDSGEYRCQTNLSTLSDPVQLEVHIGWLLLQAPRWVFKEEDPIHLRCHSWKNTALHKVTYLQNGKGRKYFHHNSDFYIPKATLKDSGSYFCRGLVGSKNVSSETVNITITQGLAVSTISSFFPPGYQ

KD fold (SG1 = 1) [1] [fold] | KD fold (SG1 = 1) [2] [fold] | KD fold (SG1 = 1) [3] [fold] | KD fold (SG1 = 1) [4] [fold] | KD fold (SG1 = 1) [5] [fold] | KD fold (SG1 = 1) [6] [fold] | Kd [3] [nM] | Kd [7] [nM] | Kd [4] [nM] | Kd [5] [nM] | Kd [8] [nM] | Binder
 |  | 0.15 | 0.8 | 6.1 | 0.03 |  |  |  |  |  | M103205H795-MY210/M103202L889-SK1 (antibody, human IgG1, kappa, name in EU numbering, substitutions in EU numbering, introduced into M103205H795-SG1) heavy: QVTLKESGPVLVKPTETLTLTCTVSGIDLSHDDISWVRQAPGKGLEWVGIISYAGSTYYASWAKGRLTISKDTSKNQVVLTMTNMDPVDTATYYCARGVPAYSHGGDLWGQGTLVTVSSASTKGPSVFPLAPSSKSTSGGTAALGCLVKDYFPEPVTVSWNSGALTSGVHTFPAVLQSSGLYSLSSVVTVPSSSLGTQTYICNVNHKPSNTKVDKKVEPKSCDKTHTCPPCPAPELLNGPSVFLFPPKPKDTLMISRTPEVTCVVVDVSDEDPEVKFNWYVDGVEVHNAKTKPREEQYNSTYRVVSVLTVLHQDWLNGKEYKCKVSNTALPKPIEKTISKAKGQPREPQVYTLPPSREEMTKNQVSLTCLVKGFYPSDIAVEWESNGQPENNYKTTPPVLDSDGSFFLYSKLTVDKSRWQQGNVFSCSVMHEALHNHYTQKSLSLSP light: DIVMTQSPATLSLSPGERATLSCTSSQSVYHANWLSWFQQKPGQPPKLLIYWASTLAYGVPSRFSGSGSGTDFTLTISSLQPEDAATYYCAGGYGGGRYAFGQGTKVEIKRTVAAPSVFIFPPSDEQLKSGTASVVCLLNNFYPREAKVQWKVDNALQSGNSQESVTEQDSKDSTYSLSSTLTLSKADYEKHKVYACEVTHQGLSSPVTKSFNRGEC
5.7 | 0.07 |  |  |  |  |  |  |  |  |  | MS1032LO19-SG1071 (antibody, tied to rows r14/r32 by row order only; also called MS103240H795-SG1071; copies: 2 + 2) heavy: QVQLVESGGGLVQPGGSLRLSCAVSGIDLSHDDISWVRQAPGKGLEWVSIISYAGSTYYASWAKGRLTISKDTSKNQVVLTMTNMDPVDTATYYCARGVPAYSHGGDLWGQGTLVTVSSASTKGPSVFPLAPSSKSTSGGTAALGCLVKDYFPEPVTVSWNSGALTSGVHTFPAVLQSSGLYSLSSVVTVPSSSLGTQTYICNVNHKPSNTKVDKKVEPKSCDKTHTCPPCPAPELLNGPSVFLFPPKPKDTLMISRTPEVTCVVVDVSDEDPEVKFNWYVDGVEVHNAKTKPREELYNSTYRVVSVLTVLHRDWLNGKEYKCKVSNKALPKPIEKTISKAKGQPREPQVYTLPPSREEMTKNQVSLTCLVKGFYPSDIAVEWESNGQPENNYKTTPPVLDSDGSFFLYSKLTVKKSRWQQGNVFSCSVLHEALHAHTTRKELSLSP light: DIVMTQSPATLSLSPGERATLSCTTSQSVYHENWLSWFQQKPGQPPKLLIYWASTLAYGVPSRFSGSGSGTDFTLTISSLQPEDAATYYCAGGYGGGRYAFGQGTKVEIKRTVAAPSVFIFPPSDEQLKSGTASVVCLLNNFYPREAKVQWKVDNALQSGNSQESVTEQDSKDSTYSLSSTLTLSKADYEKHKVYACEVTHQGLSSPVTKSFNRGEC
 |  | 0.13 |  | 2.8 |  | 2700 | 1200 | 1100 |  |  | M103205H795-MY179/M103202L889-SK1 (antibody, human IgG1, kappa, name in EU numbering, EU numbering) heavy: QVTLKESGPVLVKPTETLTLTCTVSGIDLSHDDISWVRQAPGKGLEWVGIISYAGSTYYASWAKGRLTISKDTSKNQVVLTMTNMDPVDTATYYCARGVPAYSHGGDLWGQGTLVTVSSASTKGPSVFPLAPSSKSTSGGTAALGCLVKDYFPEPVTVSWNSGALTSGVHTFPAVLQSSGLYSLSSVVTVPSSSLGTQTYICNVNHKPSNTKVDKKVEPKSCDKTHTCPPCPAPELLNGPSVFLFPPKPKDTLMISRTPEVTCVVVDVSEEDPEVKFNWYVDGVEVHNAKTKPREEQYNSTYRVVSVLTVLHQDWLNGKEYKCKVSNKALPAPIEKTISKAKGQPREPQVYTLPPSREEMTKNQVSLTCLVKGFYPSDIAVEWESNGQPENNYKTTPRVLDSDGSFFLYSKLTVDKSRWQQGNVFSCSVMHEALHNHYTQKSLSLSP light: DIVMTQSPATLSLSPGERATLSCTSSQSVYHANWLSWFQQKPGQPPKLLIYWASTLAYGVPSRFSGSGSGTDFTLTISSLQPEDAATYYCAGGYGGGRYAFGQGTKVEIKRTVAAPSVFIFPPSDEQLKSGTASVVCLLNNFYPREAKVQWKVDNALQSGNSQESVTEQDSKDSTYSLSSTLTLSKADYEKHKVYACEVTHQGLSSPVTKSFNRGEC

More lines, now with the values behind:

Binder | KD fold (SG1 = 1) [1] [fold] | KD fold (SG1 = 1) [2] [fold] | KD fold (SG1 = 1) [3] [fold] | KD fold (SG1 = 1) [4] [fold] | KD fold (SG1 = 1) [5] [fold] | KD fold (SG1 = 1) [6] [fold] | Kd [3] [nM] | Kd [7] [nM] | Kd [4] [nM] | Kd [5] [nM] | Kd [8] [nM]
MS1032LO06-SG1012 (antibody, human IgG1, kappa, tied to rows r7/r25 by row order only; also called MS103205H795-SG1012; copies: 2 + 2) heavy: QVTLKESGPVLVKPTETLTLTCTVSGIDLSHDDISWVRQAPGKGLEWVGIISYAGSTYYASWAKGRLTISKDTSKNQVVLTMTNMDPVDTATYYCARGVPAYSHGGDLWGQGTLVTVSSASTKGPSVFPLAPSSKSTSGGTAALGCLVKDYFPEPVTVSWNSGALTSGVHTFPAVLQSSGLYSLSSVVTVPSSSLGTQTYICNVNHKPSNTKVDKKVEPKSCDKTHTCPPCPAPELLNGPSVFLFPPKPKDTLMISRTPEVTCVVVDVSEEDPEVKFNWYVDGVEVHNAKTKPREEQYNSTYRVVSVLTVLHQDWLNGKEYKCKVSNKALPKPIEKTISKAKGQPREPQVYTLPPSREEMTKNQVSLTCLVKGFYPSDIAVEWESNGQPENNYKTTPMVLDSDGSFFLYSKLTVDKSRWQQGNVFSCSVMHEALHAHYTQKSLSLSP light: DIVMTQSPATLSLSPGERATLSCTSSQSVYHANWLSWFQQKPGQPPKLLIYWASTLAYGVPSRFSGSGSGTDFTLTISSLQPEDAATYYCAGGYGGGRYAFGQGTKVEIKRTVAAPSVFIFPPSDEQLKSGTASVVCLLNNFYPREAKVQWKVDNALQSGNSQESVTEQDSKDSTYSLSSTLTLSKADYEKHKVYACEVTHQGLSSPVTKSFNRGEC | 0.5 | 0.11 |  |  |  |  |  |  |  |  | 
M103205H795-MY178/M103202L889-SK1 (antibody, human IgG1, kappa, name in EU numbering, EU numbering) heavy: QVTLKESGPVLVKPTETLTLTCTVSGIDLSHDDISWVRQAPGKGLEWVGIISYAGSTYYASWAKGRLTISKDTSKNQVVLTMTNMDPVDTATYYCARGVPAYSHGGDLWGQGTLVTVSSASTKGPSVFPLAPSSKSTSGGTAALGCLVKDYFPEPVTVSWNSGALTSGVHTFPAVLQSSGLYSLSSVVTVPSSSLGTQTYICNVNHKPSNTKVDKKVEPKSCDKTHTCPPCPAPELLNGPSVFLFPPKPKDTLMISRTPEVTCVVVDVSEEDPEVKFNWYVDGVEVHNAKTKPREEQYNSTYRVVSVLTVLHQDWLNGKEYKCKVSNKALPAPIEKTISKAKGQPREPQVYTLPPSREEMTKNQVSLTCLVKGFYPSDIAVEWESNGQPENNYKTTPQVLDSDGSFFLYSKLTVDKSRWQQGNVFSCSVMHEALHNHYTQKSLSLSP light: DIVMTQSPATLSLSPGERATLSCTSSQSVYHANWLSWFQQKPGQPPKLLIYWASTLAYGVPSRFSGSGSGTDFTLTISSLQPEDAATYYCAGGYGGGRYAFGQGTKVEIKRTVAAPSVFIFPPSDEQLKSGTASVVCLLNNFYPREAKVQWKVDNALQSGNSQESVTEQDSKDSTYSLSSTLTLSKADYEKHKVYACEVTHQGLSSPVTKSFNRGEC |  |  | 0.17 | 0.6 |  | 0.15 | 3000 | 1300 |  |  | 
M103205H795-MY172/M103202L889-SK1 (antibody, human IgG1, kappa, name in EU numbering, EU numbering) heavy: QVTLKESGPVLVKPTETLTLTCTVSGIDLSHDDISWVRQAPGKGLEWVGIISYAGSTYYASWAKGRLTISKDTSKNQVVLTMTNMDPVDTATYYCARGVPAYSHGGDLWGQGTLVTVSSASTKGPSVFPLAPSSKSTSGGTAALGCLVKDYFPEPVTVSWNSGALTSGVHTFPAVLQSSGLYSLSSVVTVPSSSLGTQTYICNVNHKPSNTKVDKKVEPKSCDKTHTCPPCPAPELLNGPSVFLFPPKPKDTLMISRTPEVTCVVVDVSEEDPEVKFNWYVDGVEVHNAKTKPREEQYNSTYRVVSVLTVLHQDWLNGKEYKCKVSNKALPAPIEKTISKAKGQPREPQVYTLPPSREEMTKNQVSLTCLVKGFYPSDIAVEWESNGQPENNYKTTPGVLDSDGSFFLYSKLTVDKSRWQQGNVFSCSVMHEALHNHYTQKSLSLSP light: DIVMTQSPATLSLSPGERATLSCTSSQSVYHANWLSWFQQKPGQPPKLLIYWASTLAYGVPSRFSGSGSGTDFTLTISSLQPEDAATYYCAGGYGGGRYAFGQGTKVEIKRTVAAPSVFIFPPSDEQLKSGTASVVCLLNNFYPREAKVQWKVDNALQSGNSQESVTEQDSKDSTYSLSSTLTLSKADYEKHKVYACEVTHQGLSSPVTKSFNRGEC |  |  | 0.17 |  | 1.8 |  | 3500 |  | 1700 | 2800 | 1100
